Assay results taken from US12221481B2, “CD19 binding molecules and uses thereof” (Novartis AG, priority 2019, dated 2025).
Changes are numbered by the printed parent chain.

B1: CD3hi: anti-CD3 antibody having high affinity to CD3 (in relative terms) (antibody, V domains shown)
VH: EVQLVESGGGLVQPGGSLKLSCAASGFTFNTYAMNWVRQASGKGLEWVGRIRSKYNNYATYYADSVKDRFTISRDDSKSTLYLQMNSLKTEDTAVYYCVRHGNFGNSYVSWFAYWGQGTLVTVSS
VL: QAVVTQEPSLTVSPGGTVTLTCRSSTGAVTTSNYANWVQQKPGQAPRGLIGGTNKRAPWTPARFSGSLLGDKAALTLSGAQPEDEAEYFCALWYSNLWVFGGGTKLTVL
B2: CD3med: anti-CD3 antibody having medium affinity to CD3 (in relative terms) (antibody, V domains shown)
VH: B1 VH with S79N, L81A, Y114H
VL: B1 VL with R23G, T31S, D71G, F89Y
B3: CD3lo: anti-CD3 antibody having low affinity to CD3 (in relative terms) (antibody, V domains shown)
VH: B1 VH with L81A
VL: B1 VL
B4: NEG258: CD19 antibody; VH SEQ ID NO:13, VL SEQ ID NO:26 (antibody, V domains shown)
VH: QVQLVQSGAEVKKPGASVKVSCKASGYTFTTYWIQWVRQAPGQRLEWMGAVYPGDADTRYTQKFQGRVTLTADRSASTAYMELSSLRSEDTAVYYCGRDAGLEYYALDYWGQGTLVTVSS
VL: EIVMTQSPATLSVSPGERATLSCRASQDVGTAVAWYQQKPGQAPRLLIYWASTRHTGIPARFSGSGSGTEFTLTISSLQSEDFAVYFCQQYANFPLYTFGQGTKLEIK
B5: NEG218: CD19 antibody; VH SEQ ID NO:39, VL SEQ ID NO:52 (antibody, V domains shown)
VH: EVQLVQSGAEVKKPGESLKISCKASGYSFTNYWMNWVRQMPGKGLEWMGMIHPSDSEIRLNQKFQGQVTLSVDKSIGTAYMQWSSLKASDTAMYYCSRWYYLSSPMDYWGQGTTVTVSS
VL: EIVMTQSPATLSVSPGERATLSCRASQDVGTAVAWYQQKPGQAPRLLIYWASTRHTGIPARFSGSGSGTEFTLTISSLQSEDFAVYFCQQYSSYPYTFGQGTKLEIK
B6: IgV V54C_G88C: CD58 IgV domain with V54 and G88 replaced by cysteines (stabilizing disulfide) (protein)
chain: SQQIYGVVYGNVTFHVPSNVPLKECLWKKQKDKVAELENSEFRAFSSFKNRVYLDTVSCSLTIYNLTSSDEDEYEMESPNITDTMKFFLYVLESGGGGSHHHHHHHH
B7: IgV V45C_M114C: CD58 IgV domain with V45 and M114 replaced by cysteines (stabilizing disulfide) (protein)
chain: B6 chain with V16C, C25V, C59G, M85C
B8: CD58 Full ECD: recombinant human CD58 full extracellular domain (protein)
chain: SQQIYGVVYGNVTFHVPSNVPLKEVLWKKQKDKVAELENSEFRAFSSFKNRVYLDTVSGSLTIYNLTSSDEDEYEMESPNITDTMKFFLYVLESLPSPTLTCALTNGSIEVQCMIPEHYNSHRGLIMYSWDCPMEQCKRNSTSIYFKMENDLPQKIQCTLSNPLFNTTSSIILTTCIPSSGHSRHRGGGGSHHHHHHHH
B9: CD58_IgV: recombinant human CD58 IgV domain (domain 1), no added disulfide (protein)
chain: B6 chain with C25V, C59G
B10: IgV V45C_M105C: CD58 IgV domain with V45 and M105 replaced by cysteines (stabilizing disulfide) (protein)
chain: B6 chain with V16C, C25V, C59G, M76C

Columns and labels:
CD3-Fc = assay: CD3 affinity measurement of anti-CD3 mAbs (Biacore T200); format: binding; conditions: as measured by Biacore; stated to be for identification, not absolute affinity values
Description: For each trispecific construct, three plasmids were synthesized. […] It should be understood that with respect to the mentioned Biacore affinity values and relative terms in the construct names, these are used merely for identification purposes and are not intended to represent absolute affinity values. A second plasmid encoding a light chain was synthesized as a fusion comprising (in the N-terminal to C-terminal direction) (i) an anti-CD19 VL domain and (ii) a constant human kappa sequence. The proteins encoded by the first and second plasmids form the first half antibody. A third plasmid encoding the second half antibody was synthesized as a fusion comprising (in the N-terminal to C-terminal direction) (i) the IgV domain of CD58 (CD58-6) and (ii) a constant hIgG1 domain containing a T366W mutation for a knob to facilitate heterodimerization as well as silencing mutations.
Briefly, anti-hFc IgG1 was immobilized on a CM5 chip. After capturing CD3-Fc (1 μg/ml in HBS-EP+ buffer, flow rate of 50 μl/min, with a 30 second injection time) kinetic data was acquired by subsequent injections of 1:2 dilution series of the different antibodies in HBS-EP+ buffer.
Data were evaluated using the Biacore T200 evaluation software version 1.0. The raw data were double referenced, i.e. the response of the measuring flow cell was corrected for the response of the reference flow cell, and in a second step the response of a blank injection was subtracted. Finally, the sensorgrams were fitted by applying 1:1 binding model to calculate kinetic rate constants and dissociation equilibrium constants. Rmax was set at local. Data were processed individually for each run.

cyno CD19 = assay: Binding of TBMs to 300.19 cells overexpressing cyno CD19 (FACS); set-up: species or system cynomolgus
Description: (§1) The mouse cell line 300.19 was engineered to overexpress either human CD19 or cyno CD19. Cells were cultured in RPMI medium (Invitrogen #11875-093) with 10% FBS and 2-mercaptoethanol. Cells were harvested and resuspended in FACS buffer (PBS containing 1% FBS). 50,000 cells per well were plated in a V-bottom 96-well plate. Each cell line was incubated with serial dilutions of TBMs of Example 1A (i.e., R variants) for one hour on ice. Cells were centrifuged for 4 min at 400×g and washed with FACS buffer. This was repeated twice, and then the cells were incubated with Alexa-647 labeled anti-human Fc secondary antibody (Jackson Immuno #109-605-098) for 30 min on ice. The cells were washed twice, then resuspended in 100 μL of FACS buffer. FACS data was collected on a Beckman Coulter Cytoflex and analysis was performed using CytExpert v2.3.

human CD19 = target: T1, human CD19 (Homo sapiens, UniProt P15391); assay: Binding of TBMs to 300.19 cells overexpressing human CD19 (FACS); conditions: for binding to human CD19 compared with cyno CD19: 300.19 cells overexpressing human or cyno CD19
T1 construct: expressed in transfected cells; host or cells: mouse cell line 300.19
T1 sequence (P15391 20-556): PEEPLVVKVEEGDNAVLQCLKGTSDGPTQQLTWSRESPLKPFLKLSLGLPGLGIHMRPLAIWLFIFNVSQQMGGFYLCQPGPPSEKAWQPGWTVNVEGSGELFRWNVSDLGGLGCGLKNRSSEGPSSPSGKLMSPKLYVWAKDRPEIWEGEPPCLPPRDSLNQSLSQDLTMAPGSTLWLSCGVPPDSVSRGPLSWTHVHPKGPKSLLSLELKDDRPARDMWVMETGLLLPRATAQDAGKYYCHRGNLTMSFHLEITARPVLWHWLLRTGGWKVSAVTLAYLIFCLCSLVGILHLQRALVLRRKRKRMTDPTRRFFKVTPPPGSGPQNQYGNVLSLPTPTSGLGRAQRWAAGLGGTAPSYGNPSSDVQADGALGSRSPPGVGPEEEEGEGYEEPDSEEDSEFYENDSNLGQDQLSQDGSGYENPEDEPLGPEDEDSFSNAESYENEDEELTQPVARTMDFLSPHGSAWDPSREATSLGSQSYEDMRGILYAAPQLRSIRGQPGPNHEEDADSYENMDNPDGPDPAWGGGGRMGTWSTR
Description: as §1

[1] = Thermal stability of CD58 variants by differential scanning calorimetry (DSC); format: physicochemical; conditions: HBS, 0.5 mg/mL
Description: For DSC, all samples were dialyzed into HEPES-buffered saline (HBS) and diluted to final concentration of 0.5 mg/mL. Tm and Tonset were determined using a MicroCal VP-Capillary DSC system (Malvern) by increasing temperature from 25° C. to 100° C. at 1° C./minute with a filtering period of 2 seconds and a mid-gain setting.

[2] = Thermal stability of CD58 variants by differential scanning fluorimetry (DSF); format: physicochemical
Description: Disulfide stabilized variants were assessed for improved thermal stability using both differential scanning calorimetry (DSC) and differential scanning fluorimetry (DSF) using standard techniques. For DSF, 1-3 ug of each construct was add to 1× Sypro Orange (Thermo-Fisher) in 25 ul total volume in 96-well PCR plate. Using a Bio-Rad CFX96 RT-PCR system equipped with C1000 Thermal Cycler, the temperature was increased from 25° C. to 95° C. at 0.5° C./minute and the fluorescence monitored. The manufacturer-supplied software was used to determine Tm.

recombinant human CD2 = target: T2, recombinant human CD2 (Homo sapiens, UniProt P06729); assay: Isothermal calorimetry (ITC) of CD58 variants binding to CD2; conditions: apparent KD, CD2 titrated into 10 μM CD58 variant, HBS
T2 construct: transiently produced and purified from HEK293 cells along with the CD2 extracellular domain; made in house; host or cells: HEK293 / HEK293F, transient
T2 sequence (P06729 with tags, fused parts or gaps): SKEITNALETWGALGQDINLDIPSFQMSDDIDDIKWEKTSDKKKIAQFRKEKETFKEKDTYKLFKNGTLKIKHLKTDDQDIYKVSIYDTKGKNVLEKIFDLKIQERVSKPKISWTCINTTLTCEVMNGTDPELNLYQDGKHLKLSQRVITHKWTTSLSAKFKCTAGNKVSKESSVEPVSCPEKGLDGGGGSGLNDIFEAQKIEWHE
Description: To ensure the binding affinity remained uncompromised by the additional of the stabilizing disulfide variance, isothermal calorimetry (ITC) was performed on the resulting recombinant CD58 proteins to determine their apparent KD and binding stoichiometry (n) to recombinant human CD2.
Briefly, recombinant human CD2 and recombinant human CD58 variants were dialyzed into HEPES-buffered saline (HBS). CD2 was diluted to final concentration of 100 μM, CD58 variants were diluted to 10 μM. CD2 was titrated into 10 μM of CD58 variants via multiple injections and ΔH (kcal/mole) determined using a MicroCal VP-ITC isothermal titration calorimeter (Malvern). Titrations of CD2 into HBS were used as a reference and KD and n determined from the resulting data.

Row | Molecule | Kd (CD3-Fc) [nM] | Tm by Differential Scanning Calorimetry (DSC) [1] [°C] | Tmonset by Differential Scanning Calorimetry (DSC) [1] [°C] | Tm by Differential Scanning Fluorimetry (DSF) [2] [°C] | other results
1 | B1 | 16 | – | – | – | –
2 | B2 | 30 | – | – | – | –
3 | B3 | 48 | – | – | – | –
4 | B4 | – | – | – | – | affinity for cyno CD19, NEG258 vs NEG218 (cyno CD19): greater affinity for both human CD19 and cyno CD19; affinity for human CD19, NEG258 vs NEG218 (human CD19): greater affinity for both human CD19 and cyno CD19; binding to human CD19 compared with cyno CD19 (human CD19): bind equally to both human and cyno
5 | B5 | – | – | – | – | binding to human CD19 compared with cyno CD19 (human CD19): greater affinity for cyno CD19 than human CD19
6 | B6 | – | 80.9 | 66.7 | 76.5 | –
7 | B7 | – | 72.5 | 49.6 | 63.5 | –
8 | B8 | – | 65.0 | 48.8 | 59.5 | Kd (recombinant human CD2): 570 nM
9 | B9 | – | 60.9 | 46.3 | 48.5 | –
10 | B10 | – | 66.8 | 43.9 | 48.5 | –
